Values joined by “and” are separate entries in the source; they are usually repeats but may differ in a detail not shown here. Equal entries are not always repeated.

The target of assay [1] is T1, sly1^E138K, Gal4 DNA-binding domain fusion (Arabidopsis thaliana, UniProt Q9STX3 1-151, E138K).
T1 sequence: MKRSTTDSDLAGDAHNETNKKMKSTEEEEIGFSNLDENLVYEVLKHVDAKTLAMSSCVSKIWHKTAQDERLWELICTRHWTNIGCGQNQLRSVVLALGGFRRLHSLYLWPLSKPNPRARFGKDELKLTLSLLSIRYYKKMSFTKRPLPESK
Description: yeast three-hybrid.

For assay [2], the target named is T2, MBP–GID1A (GIBBERELLIC ACID-… DWARF-1A, MBP fusion) (Arabidopsis thaliana, UniProt Q9MAA7 1-345).
T2 sequence: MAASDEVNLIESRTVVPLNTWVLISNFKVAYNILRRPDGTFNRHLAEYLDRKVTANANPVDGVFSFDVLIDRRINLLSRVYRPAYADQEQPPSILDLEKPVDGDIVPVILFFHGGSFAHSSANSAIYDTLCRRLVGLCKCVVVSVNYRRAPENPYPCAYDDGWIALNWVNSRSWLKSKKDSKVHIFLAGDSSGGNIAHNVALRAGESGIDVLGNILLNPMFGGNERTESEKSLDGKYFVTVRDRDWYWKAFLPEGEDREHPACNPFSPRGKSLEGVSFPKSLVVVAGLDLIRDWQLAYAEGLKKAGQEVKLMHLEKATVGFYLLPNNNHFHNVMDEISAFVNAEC
Kind of assay: SPR.

B1: RGL1 (REPRESSOR OF GA1-3-LIKE 1), Gal4 activation domain fusion (natural protein)
chain: MKREHNHRESSAGEGGSSSMTTVIKEEAAGVDELLVVLGYKVRSSDMADVAHKLEQLEMVLGDGISNLSDETVHYNPSDLSGWVESMLSDLDPTRIQEKPDSEYDLRAIPGSAVYPRDEHVTRRSKRTRIESELSSTRSVVVLDSQETGVRLVHALLACAEAVQQNNLKLADALVKHVGLLASSQAGAMRKVATYFAEGLARRIYRIYPRDDVALSSFSDTLQIHFYESCPYLKFAHFTANQAILEVFATAEKVHVIDLGLNHGLQWPALIQALALRPNGPPDFRLTGIGYSLTDIQEVGWKLGQLASTIGVNFEFKSIALNNLSDLKPEMLDIRPGLESVAVNSVFELHRLLAHPGSIDKFLSTIKSIRPDIMTVVEQEANHNGTVFLDRFTESLHYYSSLFDSLEGPPSQDRVMSELFLGRQILNLVACEGEDRVERHETLNQWRNRFGLGGFKPVSIGSNAYKQASMLLALYAGADGYNVEENEGCLLLGWQTRPLIATSAWRINRVE
On to B1, for which, in assay [1], the “fold recruitment against the ΔDELLA mutant in the presence of GID1A/GA3” value is 4 fold.

B2: MBP–RGL1^N (RGL1^1–137, N-terminal or DELLA domain of RGL1, MBP fusion) (domain or fragment)
chain: MKREHNHRESSAGEGGSSSMTTVIKEEAAGVDELLVVLGYKVRSSDMADVAHKLEQLEMVLGDGISNLSDETVHYNPSDLSGWVESMLSDLDPTRIQEKPDSEYDLRAIPGSAVYPRDEHVTRRSKRTRIESELSST
As for B2, in assay [2], the Ka was 5.73e+08 M⁻¹ and 3.58e+08 M⁻¹ and 6.49e+08 M⁻¹.
